Measurements reported in paper PMC5216119, “An allosteric conduit facilitates dynamic multisite substrate recognition by the SCF^Cdc4 ubiquitin ligase” (Nature Communications, 2017).
Where a chain is given by its changes, count along the chain named. Where two headings read alike, the source gives them in different places. Square brackets hold non-standard residues; d marks the D form. Ends that are not written are not given here. Peptide text beside a SMILES is read from it. pT = C[C@@H](OP(=O)(O)O)[C@H](N)C(=O)O; pS = N[C@@H](COP(=O)(O)O)C(=O)O

What was measured:
Skp1-Cdc4 complex = Skp1-Cdc4 complex (Saccharomyces cerevisiae, UniProt P07834+P52286); experiment: Fluorescence polarization binding of fluorescein-labelled Ash1 peptides to Skp1-Cdc4; design: species or system yeast; conditions: 10 nM fluorescein-labelled peptide, increasing recombinant Skp1-Cdc4 complex; 10 mM HEPES pH 7.5, 40 mM NaCl, 0.1 mg ml^−1 BSA, 1 mM DTT; ex 485 / em 535 nm; read-out: Kd (μM) from fluorescence polarization
Excerpt: Figure 6 NMR titration of IM-labelled Cdc4^WD40 with Ash1 peptides. (a) Combined ^1H and ^13C chemical shifts of Cdc4^WD40 on binding of Ash1 peptides, with pT286 peptide in red, pT290 peptide in green, pS294 peptide in yellow, and the peptide phosphorylated on all three CPDs in blue. Assigned Ile and Met residues are labelled with residue number. Chemical shifts for the two bound states in titration with pT286 and triply phosphorylated peptides are reported on the same bars with stripes or without stripes. […] (f) Fluorescence polarization of the fluorescein-labelled Ash1 peptides (circle, pT286/pT290/pS294, square, pT286/pT290, triangle, pT290/pS294, inverted triangle doubly phosphorylated CycE peptide) in the presence of increasing concentrations of the recombinant Skp1-Cdc4 complex (mP, millipolarization unit). (g) Fluorescence polarization of the fluorescein-labelled Ash1 peptides (circle, pT286/pT290/pS294, square, pT286/pT290, triangle, pT290/pS294, inverted triangle, doubly phosphorylated CycE peptide) in the presence of increasing concentrations of the SCF-I2 inhibitor.
Fluorescence polarization assays containing 0.21 μM Skp1-Cdc4 complex and 10 nM fluorescently labelled cyclin E-derived or Ash1-derived phosphopeptides in 10 mM HEPES (pH 7.5), 40 mM NaCl, 0.1 mg ml^−1 BSA and 1 mM DTT in a final volume of 23.5 μl per well were performed on an Analyst HT plate reader (Molecular Devices Corp., Sunnyvale CA). Samples were excited at 485 nm and emission was read at 535 nm (ref. [26]).

[1] = biological target: Cdc4 (Saccharomyces cerevisiae) (UniProt P07834); conditions: cited from earlier work
[2] = biological target: Cdc4 (Saccharomyces cerevisiae) (UniProt P07834); conditions: cited from earlier work; remark: listed apart in the source
[3] = biological target: Cdc4 (Saccharomyces cerevisiae) (UniProt P07834); conditions: cited from earlier work; remark: listed apart in the source
[4] = biological target: Cdc4 (Saccharomyces cerevisiae) (UniProt P07834); conditions: cited from earlier work; remark: listed apart in the source
[5] = biological target: Cdc4 (Saccharomyces cerevisiae) (UniProt P07834); conditions: cited from earlier work; remark: listed apart in the source
[6] = biological target: Cdc4 (Saccharomyces cerevisiae) (UniProt P07834); conditions: cited from earlier work; remark: listed apart in the source
[7] = biological target: Cdc4 (Saccharomyces cerevisiae) (UniProt P07834); conditions: cited from earlier work; remark: listed apart in the source
[8] = biological target: Cdc4 (Saccharomyces cerevisiae) (UniProt P07834); conditions: cited from earlier work; remark: listed apart in the source
[9] = biological target: Cdc4-Skp1 (Saccharomyces cerevisiae) (UniProt P07834); experiment: intrinsic Trp fluorescence; conditions: cited from earlier work
[10] = biological target: fluorescein-labelled Ash1^18pT286/pT290 peptide (yeast); experiment: fluorescence polarisation; 10 nM fluorescein-labelled peptide with increasing concentrations of the recombinant Skp1-Cdc4 complex; 10 mM HEPES pH 7.5, 40 mM NaCl, 0.1 mg/ml BSA, 1 mM DTT
[11] = biological target: fluorescein-labelled Ash1^18pT286/pT290/pS294 peptide (yeast); experiment: as above
[12] = biological target: fluorescein-labelled Ash1^18pT290/pS294 peptide (yeast); experiment: as above
[13] = biological target: T1, Cdc4^WD40 (isolated WD40 domain of the yeast F-box protein Cdc4, residues 367-744), wild type (yeast, UniProt P07834 367-744); experiment: other fluorescence titration; intrinsic Trp fluorescence (excitation 298 nm, emission 366 nm); 0.5 μM Cdc4, ligand titrated; 50 mM Tris, 150 mM NaCl, 5 mM DTT, pH 7.5, 20 °C; 1:1 stoichiometry assumed; conditions: both partners purified
T1 construct: Cdc4, yeast F-box protein, WD40 domain, residues 367-744; For the NMR experiments the protein was U-[15N,2H], Ile-delta1-[13CH3], Met-epsilon-[13CH3] labelled (IM-labelled); also called wt Cdc4^WD40; Cdc4 WD40 domain; source: E. coli BL21(DE3) codonPlus, purified (Ni-NTA, Ulp protease, Ni-NTA, Superdex 200)
T1 sequence (looked up): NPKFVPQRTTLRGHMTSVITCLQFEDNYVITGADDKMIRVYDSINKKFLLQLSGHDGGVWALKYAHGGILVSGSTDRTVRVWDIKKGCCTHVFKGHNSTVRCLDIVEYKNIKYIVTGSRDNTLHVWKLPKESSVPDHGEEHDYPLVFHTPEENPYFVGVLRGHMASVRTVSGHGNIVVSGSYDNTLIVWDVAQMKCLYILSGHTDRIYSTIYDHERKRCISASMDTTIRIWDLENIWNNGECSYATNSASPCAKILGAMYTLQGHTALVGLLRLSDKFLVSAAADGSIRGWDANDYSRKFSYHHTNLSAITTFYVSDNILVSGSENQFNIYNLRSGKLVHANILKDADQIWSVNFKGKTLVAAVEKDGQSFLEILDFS

R664Q Cdc4^WD40 = biological target: T2, R664Q Cdc4^WD40 (yeast, UniProt P07834 367-744, R664Q); experiment: as above; conditions: both partners purified
T2 construct: Cdc4, yeast F-box protein, WD40 domain, residues 367-744, with Arg664Gln in the allosteric pocket; also called Arg664Gln Cdc4^WD40; mutant (Arg664Gln) Cdc4^WD40; source: E. coli, purified as the wild type (Ni-NTA, Ulp protease, Ni-NTA, Superdex 200)
T2 sequence (looked up): T1 sequence (looked up) with R298Q

Sequence of Cdc4 (Saccharomyces cerevisiae) (P07834 whole entry): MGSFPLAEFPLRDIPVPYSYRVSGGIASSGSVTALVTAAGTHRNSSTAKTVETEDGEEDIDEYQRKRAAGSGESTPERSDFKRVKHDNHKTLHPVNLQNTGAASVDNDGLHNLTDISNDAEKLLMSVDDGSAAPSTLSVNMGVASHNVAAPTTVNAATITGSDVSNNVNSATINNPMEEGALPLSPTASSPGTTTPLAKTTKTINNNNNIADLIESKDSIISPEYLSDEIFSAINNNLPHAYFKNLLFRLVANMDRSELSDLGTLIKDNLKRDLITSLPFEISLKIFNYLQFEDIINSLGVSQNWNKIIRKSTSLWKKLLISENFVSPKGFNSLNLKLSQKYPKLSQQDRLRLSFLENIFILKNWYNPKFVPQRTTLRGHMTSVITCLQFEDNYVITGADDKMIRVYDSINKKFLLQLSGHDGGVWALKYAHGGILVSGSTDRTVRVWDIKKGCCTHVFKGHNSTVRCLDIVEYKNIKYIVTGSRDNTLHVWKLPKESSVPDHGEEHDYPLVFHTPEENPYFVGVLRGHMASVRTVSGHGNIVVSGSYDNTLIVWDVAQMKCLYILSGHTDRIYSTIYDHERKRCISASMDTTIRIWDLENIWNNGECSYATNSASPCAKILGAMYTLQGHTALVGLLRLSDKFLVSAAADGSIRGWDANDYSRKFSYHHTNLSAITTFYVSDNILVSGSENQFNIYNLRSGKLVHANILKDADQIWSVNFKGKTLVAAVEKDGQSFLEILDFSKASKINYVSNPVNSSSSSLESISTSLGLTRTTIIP
Sequence of Skp1-Cdc4 complex (P07834 whole entry): as above
Sequence of Skp1-Cdc4 complex (P52286 whole entry partner): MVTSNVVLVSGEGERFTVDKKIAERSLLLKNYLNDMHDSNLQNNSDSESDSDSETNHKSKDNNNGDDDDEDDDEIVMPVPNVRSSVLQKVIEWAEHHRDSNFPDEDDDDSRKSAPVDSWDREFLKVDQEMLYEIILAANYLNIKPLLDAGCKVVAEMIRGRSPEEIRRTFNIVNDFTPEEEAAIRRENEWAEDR
Sequence of Cdc4-Skp1 (Saccharomyces cerevisiae) (P07834 whole entry, chain 1 of 2): as the sequence (P07834 whole entry) above
Sequence of Cdc4-Skp1 (Saccharomyces cerevisiae) (P52286 2-194, chain 2 of 2, further chain): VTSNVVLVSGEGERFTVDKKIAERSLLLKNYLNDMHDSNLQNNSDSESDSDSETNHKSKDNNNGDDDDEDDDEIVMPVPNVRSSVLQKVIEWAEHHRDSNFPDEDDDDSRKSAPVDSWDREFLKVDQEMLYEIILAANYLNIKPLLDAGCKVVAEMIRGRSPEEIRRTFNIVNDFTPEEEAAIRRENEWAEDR
Sequence of pSic1 1-90 (P38634 1-90): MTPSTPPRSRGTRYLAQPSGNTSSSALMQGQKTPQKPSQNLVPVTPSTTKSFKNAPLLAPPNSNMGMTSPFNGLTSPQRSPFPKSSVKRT
Sequence of Ash1 pS294 peptide (P34233 whole entry): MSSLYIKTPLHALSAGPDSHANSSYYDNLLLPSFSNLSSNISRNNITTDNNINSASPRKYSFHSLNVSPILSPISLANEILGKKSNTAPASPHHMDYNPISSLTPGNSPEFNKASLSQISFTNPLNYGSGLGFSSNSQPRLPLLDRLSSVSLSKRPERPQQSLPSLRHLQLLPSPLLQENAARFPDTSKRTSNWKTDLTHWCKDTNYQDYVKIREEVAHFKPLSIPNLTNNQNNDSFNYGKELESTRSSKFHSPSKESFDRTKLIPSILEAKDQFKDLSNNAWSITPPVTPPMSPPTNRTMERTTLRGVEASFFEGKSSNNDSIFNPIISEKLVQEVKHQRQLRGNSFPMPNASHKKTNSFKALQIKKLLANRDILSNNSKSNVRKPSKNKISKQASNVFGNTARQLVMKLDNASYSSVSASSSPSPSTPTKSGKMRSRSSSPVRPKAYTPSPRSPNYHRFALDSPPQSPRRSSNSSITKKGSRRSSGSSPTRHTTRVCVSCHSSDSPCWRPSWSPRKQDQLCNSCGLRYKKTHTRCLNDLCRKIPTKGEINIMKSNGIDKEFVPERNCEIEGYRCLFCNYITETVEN
Sequence of Ash1 pT290 peptide (P34233 whole entry): as above
Sequence of Ash1 pT286 peptide (P34233 whole entry): as above
Sequence of Sic1 (P38634 whole entry): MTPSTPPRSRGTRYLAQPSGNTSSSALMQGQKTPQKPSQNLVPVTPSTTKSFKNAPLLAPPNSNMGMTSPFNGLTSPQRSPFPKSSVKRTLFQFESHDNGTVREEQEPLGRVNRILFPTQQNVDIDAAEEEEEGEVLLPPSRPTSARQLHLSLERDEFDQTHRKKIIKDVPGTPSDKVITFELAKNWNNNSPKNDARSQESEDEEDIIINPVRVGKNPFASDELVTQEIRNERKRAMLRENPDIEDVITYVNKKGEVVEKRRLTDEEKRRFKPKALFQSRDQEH
Sequence of pSic1 (P38634 whole entry): as above

Molecule: CC[C@H](C)[C@H](NC(=O)[C@H](CO)NC(=O)[C@H](Cc1c[nH]c2ccccc12)NC(=O)[C@H](C)N)C(=O)N[C@H](C(=O)N1CCC[C@H]1C(=O)N1CCC[C@H]1C(=O)N[C@H](C(=O)N[C@H](C(=O)N1CCC[C@H]1C(=O)N1CCC[C@H]1C(=O)N[C@@H](CCSC)C(=O)N[C@@H](COP(=O)(O)O)C(=O)N1CCC[C@H]1C(=O)N1CCC[C@H]1C(=O)N[C@H](C(=O)N[C@@H](CC(N)=O)C(=O)N[C@@H](CCCNC(=N)N)C(=O)O)[C@@H](C)O)[C@@H](C)OP(=O)(O)O)C(C)C)[C@@H](C)O [AWSITPPVpTPPMpSPPTNR] (H-AWSITPPV[pT]PPM[pS]PPTNR-OH)
- Kd (Skp1-Cdc4 complex): 0.082 µM

Molecule: CC[C@H](C)[C@H](NC(=O)[C@H](CO)NC(=O)[C@H](Cc1c[nH]c2ccccc12)NC(=O)[C@H](C)N)C(=O)N[C@H](C(=O)N1CCC[C@H]1C(=O)N1CCC[C@H]1C(=O)N[C@H](C(=O)N[C@H](C(=O)N1CCC[C@H]1C(=O)N1CCC[C@H]1C(=O)N[C@@H](CCSC)C(=O)N[C@@H](CO)C(=O)N1CCC[C@H]1C(=O)N1CCC[C@H]1C(=O)N[C@H](C(=O)N[C@@H](CC(N)=O)C(=O)N[C@@H](CCCNC(=N)N)C(=O)O)[C@@H](C)O)[C@@H](C)OP(=O)(O)O)C(C)C)[C@@H](C)OP(=O)(O)O [AWSIpTPPVpTPPMSPPTNR] (H-AWSI[pT]PPV[pT]PPMSPPTNR-OH)
- Kd (Skp1-Cdc4 complex): 0.069 µM

Molecule: CC[C@H](C)[C@H](NC(=O)[C@H](CO)NC(=O)[C@H](Cc1c[nH]c2ccccc12)NC(=O)[C@H](C)N)C(=O)N[C@H](C(=O)N1CCC[C@H]1C(=O)N1CCC[C@H]1C(=O)N[C@H](C(=O)N[C@H](C(=O)N1CCC[C@H]1C(=O)N1CCC[C@H]1C(=O)N[C@@H](CCSC)C(=O)N[C@@H](COP(=O)(O)O)C(=O)N1CCC[C@H]1C(=O)N1CCC[C@H]1C(=O)N[C@H](C(=O)N[C@@H](CC(N)=O)C(=O)N[C@@H](CCCNC(=N)N)C(=O)O)[C@@H](C)O)[C@@H](C)OP(=O)(O)O)C(C)C)[C@@H](C)OP(=O)(O)O [AWSIpTPPVpTPPMpSPPTNR] (H-AWSI[pT]PPV[pT]PPM[pS]PPTNR-OH)
- Kd (Skp1-Cdc4 complex): 0.046 µM

Molecule: Ash1 pS294 peptide (from UniProt P34233)
- Kd [1]: 6.5 µM

Molecule: Ash1 pSer294 phosphopeptide 283-299 (from UniProt P34233)
- Kd [2]: 6.5 µM

Molecule: Ash1 pT286 peptide (from UniProt P34233)
- Kd [3]: 0.9 µM

Molecule: Ash1 pT290 peptide (from UniProt P34233)
- Kd [4]: 4.1 µM

Molecule: Ash1 pThr286 phosphopeptide 283-299 (from UniProt P34233)
- Kd [5]: 0.9 µM

Molecule: Ash1 pThr290 phosphopeptide 283-299 (from UniProt P34233)
- Kd [6]: 4.1 µM

Molecule: Ash1 triphosphorylated peptide 283-299 (from UniProt P34233)
- Kd [7]: 0.07 µM

Molecule: Sic1 (from UniProt P38634)
- Kd [8]: 1 µM

Molecule: pSic1 1-90 (from UniProt P38634)
- Kd [9]: 0.6 µM

Molecule: pSic1 (from UniProt P38634)
- Kd [9]: 0.6 µM

Molecule: recombinant Skp1-Cdc4 complex (from UniProt P07834 1-779; P52286 1-194)
- Kd [10]: 0.069 µM
- Kd [11]: 0.046 µM
- Kd [12]: 0.082 µM

Molecule: GMT[pS]PFNGLTSPQR[pS]PFPKS [Sic1^20pS69/pS80 phosphopeptide]
- Ka [13]: 142000 M⁻¹
- Kd [13]: 7.06 µM
- Ka (R664Q Cdc4^WD40): 267000 M⁻¹
- Kd (R664Q Cdc4^WD40): 3.74 µM

Molecule: GMTSPFNGLTSPQR[pS]PFPKS [Sic1^20pS80 phosphopeptide]
- Ka [13]: 110000 M⁻¹
- Kd [13]: 9.13 µM
- Ka (R664Q Cdc4^WD40): 104000 M⁻¹
- Kd (R664Q Cdc4^WD40): 9.58 µM

Molecule: GMT[pS]PFNGLTSPQRSPFPKS [Sic1^20pS69 phosphopeptide]
- Ka [13]: 97600 M⁻¹
- Kd [13]: 10.3 µM
- Ka (R664Q Cdc4^WD40): 51400 M⁻¹
- Kd (R664Q Cdc4^WD40): 19.5 µM
